Measured values from patent US20220380791A1.

Target: M6P receptor (M6PR) (human)
Experiment: cell-based or functional assay

Work on “Agalsidase beta (Genzyme, Fabrazyme) (from UniProt P06280 32-429)” yielded an intracellular α-gal A activity of Fabry patient fibroblasts after 18 hours incubation with 10 µg/ml enzyme (fold of untreated cells) of 134 fold.
